{"source": "paper PMC7279388", "molecular_target": "p65 (UniProt Q04206)", "assay": "anti-FLAG co-IP, anti-p65 blot", "settings": "reference: Flag-WT, IL-1β treated; sites S15"}
{"substance": "PRMT5 (from UniProt O14744) Flag-S15A, IL-1β treated", "values": [{"measurement": "binding against the reference", "value": "weaker"}]}
